As usually defined, the Kd is the concentration at which binding is half-saturated. In general, EC50 (read off the curve) refers to the concentration needed to bring the measured effect to its halfway point. Read a low EC50 (read off the curve) as greater potency. What is called IC50 is the point on the concentration scale where inhibition reaches its midpoint. The low end stands for higher potency, the high end for lower potency.

Experimental findings from patent publication US20240382586A1 (TAKIS S R L, published 2024) are described below.

Experiment [1] has as its target T1, SARS-CoV-2 spike receptor-binding domain (RBD), recombinant (SARS-CoV-2, UniProt P0DTC2 319-541). Nature of the experiment: ELISA on RBD. On the technique in general: In an ELISA, binding on a coated surface is turned into a signal by an enzyme label.
For experiment [2], the target named is T1, SARS-CoV-2 spike receptor-binding …. Kind of experiment: SPR, Carterra LSA.
Experiment [3] has as its target T2, SARS-CoV-2 spike receptor-binding domain, wild type (RBD-6×His) (SARS-CoV-2, UniProt P0DTC2 319-541).
Experiment [4] addresses T2, SARS-CoV-2 spike receptor-binding …. Nature of the experiment: ELISA, coated RBD-6His.
Experiment [5] concerns the target T3, full-length spike protein (coated in ELISA) (SARS-CoV-2, UniProt P0DTC2 16-1213).
For experiment [6], the target named is T2, SARS-CoV-2 spike receptor-binding …. This is another data set of the same source.
For experiment [7] the target is unchanged. The source holds these as a separate data set.
For experiment [8] the target is unchanged. This is another data set of the same source.
Experiment [9] concerns the target RBD-6×His protein, RBD WT of the SARS-CoV-2 spike protein (SARS-CoV-2, UniProt P0DTC2 319-541). Kind of experiment: ELISA on recombinant RBD.
Experiment [10] concerns the target T2, SARS-CoV-2 spike receptor-binding …. The source holds these as a separate data set.
The target of experiment [11] is RBD fragment of the SARS-CoV-2 spike protein (RBD WT), recombinant (SARS-CoV-2, UniProt P0DTC2 319-541). Nature of the experiment: SPR Carterra LSA.
The target in experiment [12] is T2, SARS-CoV-2 spike receptor-binding …. The source holds these as a separate data set.
Experiment [13] deals with T3, full-length spike protein (coated in …). The source holds these as a separate data set.
The target of experiment [14] is SARS-CoV-2 spike receptor-binding domain (RBD), recombinant (SARS-CoV-2, UniProt P0DTC2 319-541). Nature of the experiment: SPR, Carterra LSA. This is another data set of the same source. For orientation: SPR reads the build-up and loss of mass on a sensor chip optically.

Where two headings read alike, the source gives them in different places.

B1: 2-5C4 (antibody, V domains shown)
VH: EVQLVESGGGLIQPGGSLRLSCAASGLTVSSNYMNWVRQAPGKGLEWVSVIYAGGSTFYADSVKGRFTISRDNSKNTLYLQMNSLRAEDTAFYYCARESYGMDVWGQGTTVTVSS
VL: EIVLTQSPATLSLSPGERATLSCRASQSISSSYLAWYQQKPGQAPRLLIYGASSRATGIPDRFSGSGSGTDFTLTISRLEPEDFAVYYCQQYGSLYTFGQGTKVEIK
Regarding B1, the “A(405 nm)” value in experiment [1] is 2.26. Also, the Kd in experiment [2] was found to be 0.026 nM.

B2: VH1/VL1 (antibody, V domains shown)
VH: EVQLQQSGAELVKPGASVKLSCTASGFNIKETYVHWVKQRPEQGLEWIGRIDPAIGDSEYDPKFQGKATVTADTSSNTAYLQLSRLTSEDTAVYYCARTWGPFFDFWGQGTTLTVSS
VL: DVVMTQTPLSLPVSLGDQASISCRSSQSLVHSHGNTFLHWYLQKPGQSPKVLIYKVSSRFSGVPDRFSGSGAGTDFTLKISRVEAEDLGVYFCSQSTHVPYTFGGGTKLEIK
notes: also called chimeric antibody 9-8F2-B11, combination VH1/VL1
On to B2, for which the “EC50 (read off the curve)” value in experiment [3] is ~0.1 µg/mL.

B3: 9-8F2-B11 (mouse) (antibody, V domains shown)
VH: EVQLQQSGAELVKPGASVKLSCTASGFNIKETYVHWVKQRPEQGLEWIGRIDPAIGDSEYDPKFQGKATVTADTSSNTAYLQLSRLTSEDTAVYYCARTWGPFFDFWGQGTTLTVSS
VL: DVVMTQTPLSLPVSLGDQASISCRSSQSLVHSHGNTFLHWYLQKPGQSPKVLIYKVSSRFSGVPDRFSGSGAGTDFTLKISRVEAEDLGVYFCSQSTHVPYTFGGGTKLEIK
As to B3, the IC50 in experiment [4] came out at 0.0137 µg/mL; in experiment [5] it was 0.0037 µg/mL. Further, the Kd in experiment [6] was 0.913 nM.

B4: humanised 9-8F2-B11 (VH3VL3) (antibody, V domains shown)
VH: QVQLVQSGAEVKKPGASVKVSCKASGFNIKETYVHWVRQAPGQGLEWMGRIDPAIGDSEYAQKFQGRVTMTRDTSISTAYMELSRLRSDDTAVYYCARTWGPFFDFWGQGTLVTVSS
VL: DIVMTQTPLSLSVTPGQPASISCKSSQSLLHSHGNTFLHWYLQKPGQSPQVLIYKVSSRFSGVPDRFSGSGSGTDFTLKISRVEAEDVGVYYCSQSTHVPYTFGQGTKLEIK
notes: also called 9-8F2-B11 humanised
In [7], B4 gave a Kd of 2.26 nM. In addition, the “EC50 (read off the curve)” value in experiment [8] was ~0.01 µg/mL.

B5: 2-4G1 (antibody, V domains shown)
VH: EVQLVQSGAEVKRPGASVKVSCKASGYTFTSYGLSWVRQAPGQGLEWMGWINTYNGHTNYAQKVQGRVTLTTDTSTSTAYMELRSLRSDDTAVYYCARVESVYYGSGTCDPWGQGTLVTVSS
VL: DIQMTQSPSSLSASVGDRVTITCRASQSISSYLNWYQQKPGKAPKLLIYIASSLQSGVPSRFSGSGSGTDFTLTISSLQPEDFATYYCHQSYSSPHTFGQGTKLEIK
Regarding B5, the “A(405 nm)” value in experiment [1] stood at 2.08. For the same molecule, the Kd in experiment [2] came to 14.4 nM.

B6: humanised antibody 9-7A4-C2 (antibody, V domains shown)
VH: EVQLQQSGAEVKKPGASVKVSCKTSGYTFTEYTMYWVRQAPGQRLEWMGGINPNNGDSSYIQKFQGRVTITRDTSASTAYMELSSLRSEDTAVYYCARDGYPNSYAMDYWGQGTLVTVSS
VL: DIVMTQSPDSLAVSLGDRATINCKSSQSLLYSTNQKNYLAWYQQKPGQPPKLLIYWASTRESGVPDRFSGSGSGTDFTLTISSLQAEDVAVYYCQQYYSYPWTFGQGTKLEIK
notes: also called humanised 9-7A4-C2
As for B6, the binding result in experiment [9] was “binds”.

B7: 9-2H7-D7 chimera (antibody, V domains shown)
VH: EVQLQQSGPELVKPGASVTISCKTSGYTFTEYTMYWVKQSHGKSLEWIGGINPYIGDTSYNQNFKGKATLTVDKSSSTAYMELRSLTSEDSAVYYCARDGYPDYSAMDFWGQGTSVTVSS
VL: DIVMSQSPSSLAVSVGEKVTMNCKSSQNLLYSSNQKNYLAWYQQKPGQSPKLLIYWASTRESGVPDRFTGSGSGTDFTLTISSVKAEDLAVYSCQQYYTYPWTFGGGTKLEIK
For the molecule B7, in experiment [10], the “EC50 (read off the curve)” value was ~0.05 µg/mL.

B8: 9-7A4 (antibody, V domains shown)
VH: EVQLQQSGPELVKPGASVKISCKTSGYTFTEYTMYWVKQSHGKSLEWIGGINPNNGDSSYIQKFKGKATLTVDESSSTAYMELRSLTSEDSAVYYCARDGYPNSYAMDYWGQGTSVTVSS
VL: DIVMSQSPSSLAVSVGDKVTMSCKSSQSLLYSTNQKNYLAWYQQKPGQSPKLLIYWASTRESGVPDRFTGSGSGTDFTLTIGSVRPEDLAVYYCQQYYSYPWTFGGGTKLEIK
Turning to B8, the Kd in experiment [11] was found to be 0.735 nM.

B9: humanised antibody 9-2H7-D7 (antibody, V domains shown)
VH: QVQLQQSGAEVKKPGASVKISCKTSGYTFTEYTMYWVKQSHGKSLEWMGGINPYIGDTSYNQNFKGRVTMTRDKSTSTAYMELSSLTSEDSAVYYCARDGYPDYSAMDFWGQGTSVTVSS
VL: DIVMTQSPSSLAVSVGERVTINCKSSQNLLYSSNNKNYLAWYQQKPGQSPKLLIYWASTRESGVPDRFSGSGSGTDFTLTISSVQAEDVAVYSCQQYYTYPWTFGGGTKLEIK
notes: also called humanised 9-2H7-D7
Regarding B9, the binding result in experiment [9] is “binds”.

B10: 9-7A4-C2 (mouse) (antibody, V domains shown)
VH: EVQLQQSGPELVKPGASVKISCKTSGYTFTEYTMYWVKQSHGKSLEWIGGINPNNGDSSYIQKFKGKATLTVDESSSTAYMELRSLTSEDSAVYYCARDGYPNSYAMDYWGQGTSVTVSS
VL: DIVMSQSPSSLAVSVGDKVTMSCKSSQSLLYSTNQKNYLAWYQQKPGQSPKLLIYWASTRESGVPDRFTGSGSGTDFTLTIGSVRPEDLAVYYCQQYYSYPWTFGGGTKLEIK
Consider B10, for which the figures for the IC50 in experiment [4] and in experiment [5] were 0.0133 µg/mL and 0.0027 µg/mL, respectively. The Kd in experiment [6] was found to be 0.643 nM.

B11: 9-2H7-D7 (mouse) (antibody, V domains shown)
VH: EVQLQQSGPELVKPGASVTISCKTSGYTFTEYTMYWVKQSHGKSLEWIGGINPYIGDTSYNQNFKGKATLTVDKSSSTAYMELRSLTSEDSAVYYCARDGYPDYSAMDFWGQGTSVTVSS
VL: DIVMSQSPSSLAVSVGEKVTMNCKSSQNLLYSSNQKNYLAWYQQKPGQSPKLLIYWASTRESGVPDRFTGSGSGTDFTLTISSVKAEDLAVYSCQQYYTYPWTFGGGTKLEIK
B11 showed a Kd in experiment [12] of 0.0515 nM. The values for the IC50 in experiment [13] and in experiment [4] were 0.0046 µg/mL and 0.0269 µg/mL, respectively.

B12: 9-2H7 (antibody, V domains shown)
VH: EVQLQQSGPELVKPGASVTISCKTSGYTFTEYTMYWVKQSHGKSLEWIGGINPYIGDTSYNQNFKGKATLTVDKSSSTAYMELRSLTSEDSAVYYCARDGYPDYSAMDFWGQGTSVTVSS
VL: DIVMSQSPSSLAVSVGEKVTMNCKSSQNLLYSSNQKNYLAWYQQKPGQSPKLLIYWASTRESGVPDRFTGSGSGTDFTLTISSVKAEDLAVYSCQQYYTYPWTFGGGTKLEIK
With B12, in [11], the dissociation constant (Kd) turned out to be 0.00977 nM.

B13: 3-12B12 (antibody, V domains shown)
VH: EVQLQQSGAELVRPGALVKLSCKASGFNIKDYYMHWVKQRPEQGLEWIGWIDPENGNSIYDPKFQGKASITADTSFNTVNLHLSSLTSEDTAVYYCAPYYYDSTYVGTMDYWGQGTSVTVSS
VL: QIVLTQSPAIMSASPGEKVTMTCSASSSVGYMYWYQQKPGSSPRLLIYDTSNLASGVPVRFGGSGSGTSYSLTISRMEAEDAATYYCQQWSSYPPRTFGGGTKLEIK
For B13, the Kd in experiment [14] was 0.0165 nM.

B14: 2-5F8 (antibody, V domains shown)
VH: QVQLVQSGAEVKKPGASVKVSCKASGYTFTNYYMHWVRQAPGQGLEWMGVINPSGASTSYAQKFQGRVTMTRDTSTSTVYMELSSLRSEDTAVYYCASWGGNIPLYYYYGMDVWGQGTTVTVSS
VL: QSALTQPPSASGSPGQSVTISCTGTSSDVGGYNYVSWYQQHPGKAPKLMIYEVSKRPSGVPDRFSGSKAGNTASLTVSGLQAEDEADYYCTSYAGSNIWVFGGGTKLTVL
With B14, the “A(405 nm)” value in experiment [1] is 3.48. Further, the Kd in experiment [2] came to 1.5 nM.

B15: 2-5D9 (antibody, V domains shown)
VH: QVQLQESGPGLVKPSETLSLTCTVSGGSISSYYWSWIRQPPGKGLEWIGYIYYTGSTNYNPSLKSRVTISVDTSKNQFSLKLRSVTAADTAVYYCAGTYDSNLLDPWGQGTLVTVSS
VL: DIQMTQSPSSLSASVGDRVTITCRASQGISNSLAWYQQKPGKAPKLLLYDVFRFESGVPSRFSGSGSGTDYTLTISSLQPDDFATYYCQQYYSTPYTFGQGTKVEIK
On to B15, for which the “A(405 nm)” value in experiment [1] stood at 3.49. In addition, the Kd in experiment [2] is 0.544 nM.
